Holding throughout (assay): EMSA
What all share (settings): EMSA: 200 ng protein, 5 ng 3'-biotin-labeled promoter DNA, 6% DNA retardation gel, 100 V at 4 C; binding buffer, salt and pH not stated
A general note: A gel shift assay detects complexes by their altered migration in electrophoresis.

The target of data set [1] is T1, MqsA-F (Escherichia coli) (UniProt Q46864).
T1 sequence: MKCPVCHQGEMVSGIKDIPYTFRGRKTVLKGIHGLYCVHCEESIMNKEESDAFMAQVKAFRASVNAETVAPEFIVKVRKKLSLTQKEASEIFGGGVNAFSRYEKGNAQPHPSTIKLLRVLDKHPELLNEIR

Data set [2] concerns the target T2, MqsA-C (Escherichia coli) (UniProt Q46864).
T2 sequence: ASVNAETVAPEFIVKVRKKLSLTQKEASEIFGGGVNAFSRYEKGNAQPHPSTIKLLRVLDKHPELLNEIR

Data set [3] has as its target MqsR;MqsA-N (Escherichia coli;Escherichia coli) (UniProt Q46865+Q46864).
For data set [4], the target named is MqsR;MqsA-F (Escherichia coli;Escherichia coli) (UniProt Q46865+Q46864).
Data set [5] concerns the target T3, MqsA-N (Escherichia coli) (UniProt Q46864).
T3 sequence: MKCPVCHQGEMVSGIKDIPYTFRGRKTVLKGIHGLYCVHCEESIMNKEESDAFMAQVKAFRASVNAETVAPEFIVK

Sequence of MqsR;MqsA-F (Escherichia coli;Escherichia coli) (Q46865 whole entry, one chain of several): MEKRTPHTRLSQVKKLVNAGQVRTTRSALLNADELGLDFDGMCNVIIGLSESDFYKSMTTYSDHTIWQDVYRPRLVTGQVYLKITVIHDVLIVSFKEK
Sequence of MqsR;MqsA-N (Escherichia coli;Escherichia coli) (Q46865 whole entry, one chain of several): as above

Turning to “CAGTCATCCGGTATAGTTCTTCATAATCTCTGCAAAATCATCGTGTTGTAATATTCTCTCATCACTCTCCATCAAATTTTCTTTTTTTCTCCATAATTGGCGCAAAAGTGTTTTTTACACTTTCATTGTTTTACCGTTGCTCTGATTAATTGACGCTAAAGTCAGTAAAGTTAATCTCGTCAACACGGCACGCTACTTAAGAAAGCCGTAATAAATAACTGAAAGGAAGGATATAGAATATGCGTAAATTAACTGCACTGTTTGTTGCC (double strand) [Pspy]”, in data set [1], the binding entry is reported as “binds”.
Consider “CCTGCAGAGTCAAACTGACATGTTTCATTTTTCCCGTTCCAGGCATTTTAATTCCTTCGCGTGTTTTCTGTCCAACCCTGCCTGCATGGCAGAAGGAATTCACCTGGTGTATTAAAGTGAATAATCATAAACCACTCACCTTTGTTGTTATTAGCAGCAGAACAATGATGTGGTTAGTTAATTAAAGCTGAAAATAAGCTTTTTGCCTGGATTTTTATGGCGGCTTACGCCGCCGTTGAAACTTTAATCATCACCCGCCACGCGGATCACCACTTTGC (double strand) [PmcbR]”, for which the binding result in data set [1] is recorded as “binds”.
Consider “CGTGTATGTGGTGTGCGTTTTTCCATAACCCCCGCCTCCCTGTTACTTTAGTTATAACCTAAAAGGTTAATTACAGCAATGAAAAAGCACCTAAAAGGTTAGTTAGATGTACGGAGATAGTGACCACACAAAACGTATTCTTTAAGGAAAGTGATTGACCATATAAGAAAGTGGCGCATTAGTAGCGCCAGTTTGAAGCAGGAATTTATAAGGGAAGCTGGAGTCAGGCATCAC (double strand) [PmqsR]”, for which the binding entry in data set [2] is recorded as “binds”; in data set [3] it was “no binding”; in data set [4], “binds”; in data set [5] it was “no binding”; in data set [1], “binds”.
For “CGGGTTAGTGCTAGTATGAAAAAGTGAGTCCTGTCCCGCTTCCTTCCTAATTGTAATTTTTCGTAATAATGCGATGAAAACCTGCAAAGAGTGGCTTATAGTTAAGCTAACAAACGAGAGGGCAAGTCCAGGTCAGTAAGTTTTTTCCATCCCGAAAGGTGTCCGTTAGTTCAACCGCTAAGAAGGGGACGCGTTATGGATGAATACTCACCCAAAAGACATGATATCGCACAGCTTAAGT (double strand) [PtomB]”, the binding entry in data set [4] and in data set [1] was “no binding” each time.

(Values after paper PMC2791442.)
